# Measurements: paper PMC11352577
# Legend:
# [1] = target: CD64 (FcγRI) on human primary monocytes and monocyte-derived macrophages (human (endogenous in primary monocytes)) (UniProt P12314)
# [2] = target: human KIR3DL1 extracellular domains fused to mouse IgG2a Fc with Avi tag, biotinylated (human) (UniProt P43629); experiment: SPR; Biacore T200; biotinylated KIR3DL1 immobilised; IOS-1002 as analyte; HBS-EP, 25 °C; steady-state fits, averaged
# [3] = target: human KIR3DL1 extracellular domains fused to mouse IgG2a Fc with Avi tag, biotinylated (human) (UniProt P43629); experiment: SPR; Biacore T200; biotinylated receptors immobilised on Series S CAP chip; IOS-1002 as analyte, 5 concentrations 6 to 0.375 uM; HBS-EP, 25 °C; 1:1 fit
# Chain of UniProt P43629 (P43629 22-340): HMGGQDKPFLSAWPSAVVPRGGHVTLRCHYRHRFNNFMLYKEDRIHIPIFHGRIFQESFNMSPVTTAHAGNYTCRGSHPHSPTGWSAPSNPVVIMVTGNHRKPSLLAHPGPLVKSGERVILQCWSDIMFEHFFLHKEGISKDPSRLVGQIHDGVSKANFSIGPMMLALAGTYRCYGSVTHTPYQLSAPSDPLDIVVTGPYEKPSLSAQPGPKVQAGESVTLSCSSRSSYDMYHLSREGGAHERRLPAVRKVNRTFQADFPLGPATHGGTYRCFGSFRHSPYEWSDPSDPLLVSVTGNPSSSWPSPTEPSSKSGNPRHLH
# Chain of UniProt P12314 (P12314 16-374): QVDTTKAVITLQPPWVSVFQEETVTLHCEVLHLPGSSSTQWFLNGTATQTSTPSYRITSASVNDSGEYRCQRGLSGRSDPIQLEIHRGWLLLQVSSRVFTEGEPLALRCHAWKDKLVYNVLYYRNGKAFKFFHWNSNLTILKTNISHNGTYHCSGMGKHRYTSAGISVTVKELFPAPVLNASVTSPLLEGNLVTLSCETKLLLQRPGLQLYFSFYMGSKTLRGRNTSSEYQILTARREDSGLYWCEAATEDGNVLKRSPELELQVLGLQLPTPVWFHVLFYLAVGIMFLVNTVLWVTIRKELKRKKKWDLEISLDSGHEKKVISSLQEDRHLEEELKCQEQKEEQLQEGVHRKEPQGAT
substance,measurement,setting,value
IOS-1002 (HLA-B57^(A46E/V97R).B2m-IgG4_Fc) (from UniProt P61769 21-119) (Fc fusion),"macrophage phagocytosis of H460 cells, dose response (EC50)",[1],0.00333 µM
same,Kd,[2],7.48 µM
same,Kd,[3],3.28 µM
